Article PMC4909229, “Characterization of Staphylococcus aureus Primosomal DnaD Protein: Highly Conserved C-Terminal Region Is Crucial for ssDNA and PriA Helicase Binding but Not for DnaA Protein-Binding and Self-Tetrameri”
“And” between values parts separate entries of the source, which are not always exact repeats. Equal entries are not always repeated.

What was measured:
[1] = biological target: Staphylococcus aureus PriA helicase (SaPriA) (Staphylococcus aureus subsp. aureus ED98)
[2] = biological target: Staphylococcus aureus PriA helicase (SaPriA) (Staphylococcus aureus subsp. aureus ED98); assay: SPR; SaPriA or SaDnaA immobilised on CM5 chips, Biacore T200, 293 K, 40 mM Tris, 200 mM NaCl, 0.05% Tween-20, pH 8.0; SaDnaD solutions 7.6-250 nM as analyte; 1:1 (Langmuir) model
SaDnaD1-200 = biological target: T1, SaDnaD1-200 (Staphylococcus aureus subsp. aureus ED98, UniProt Q9EUT0 1-200, del201-228); assay: SEC; Superdex 200 HR 10/30, Buffer B (20 mM HEPES, 100 mM NaCl, pH 7.0), purified protein 2 mg/mL (methods; 4 mg/mL in the results for SaDnaD), calibrated with standard proteins; oligomer size from the estimated native mass
T1 sequence: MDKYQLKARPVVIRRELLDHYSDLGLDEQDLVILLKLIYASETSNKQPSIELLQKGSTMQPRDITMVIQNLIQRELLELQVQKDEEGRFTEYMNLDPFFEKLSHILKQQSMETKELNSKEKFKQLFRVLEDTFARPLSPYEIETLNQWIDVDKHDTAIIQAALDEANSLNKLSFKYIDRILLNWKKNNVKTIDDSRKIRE

SaDnaD1-204 = biological target: T2, SaDnaD1-204 (Staphylococcus aureus subsp. aureus ED98, UniProt Q9EUT0 1-204, del205-228); assay: as above
T2 sequence: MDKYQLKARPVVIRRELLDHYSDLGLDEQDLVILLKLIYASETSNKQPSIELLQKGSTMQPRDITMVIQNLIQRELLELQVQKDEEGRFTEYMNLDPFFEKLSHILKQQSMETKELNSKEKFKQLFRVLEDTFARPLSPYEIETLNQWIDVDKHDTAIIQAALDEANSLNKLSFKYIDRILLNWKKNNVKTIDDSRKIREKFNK

[3] = biological target: Staphylococcus aureus PriA helicase (SaPriA) (Staphylococcus aureus subsp. aureus ED98); remark: listed apart in the source
[4] = biological target: Staphylococcus aureus PriA helicase (SaPriA) (Staphylococcus aureus subsp. aureus ED98); remark: listed apart in the source
[5] = biological target: Staphylococcus aureus DnaA (SaDnaA) (Staphylococcus aureus subsp. aureus ED98); assay: SPR; SaPriA or SaDnaA immobilised on CM5 chips, Biacore T200, 293 K, 40 mM Tris, 200 mM NaCl, 0.05% Tween-20, pH 8.0; SaDnaD solutions 7.6-250 nM as analyte; 1:1 (Langmuir) model
SaDnaD1-195 = biological target: T3, SaDnaD1-195 (Staphylococcus aureus subsp. aureus ED98, UniProt Q9EUT0 1-195, del196-228); assay: SEC; Superdex 200 HR 10/30, Buffer B (20 mM HEPES, 100 mM NaCl, pH 7.0), purified protein 2 mg/mL (methods; 4 mg/mL in the results for SaDnaD), calibrated with standard proteins; oligomer size from the estimated native mass
T3 sequence: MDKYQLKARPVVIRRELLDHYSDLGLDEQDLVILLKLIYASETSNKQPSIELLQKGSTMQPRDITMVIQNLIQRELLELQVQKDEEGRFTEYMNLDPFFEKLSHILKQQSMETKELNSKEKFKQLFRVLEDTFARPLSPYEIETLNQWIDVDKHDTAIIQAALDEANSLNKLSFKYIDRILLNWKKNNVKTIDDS

[6] = biological target: Staphylococcus aureus DnaD (SaDnaD) (Staphylococcus aureus subsp. aureus ED98) (UniProt Q9EUT0); assay: as above
SaDnaD [7] = biological target: T4, SaDnaD (Staphylococcus aureus subsp. aureus ED98, UniProt Q9EUT0 1-228); assay: EMSA; EMSA: 20 mM Tris-HCl pH 8.0, 100 mM NaCl, 25 C, 30 min, 1.7 nM DNA, gel at 4 C in TBE; fluorescence: 20 mM Tris-HCl pH 8.0, 200 or 500 mM NaCl, 0.1 uM tetramer; conditions: protein: recombinant; tags: C-terminal His tag (pET21e); chain copies: 4; label: 5'-32P
T4 sequence: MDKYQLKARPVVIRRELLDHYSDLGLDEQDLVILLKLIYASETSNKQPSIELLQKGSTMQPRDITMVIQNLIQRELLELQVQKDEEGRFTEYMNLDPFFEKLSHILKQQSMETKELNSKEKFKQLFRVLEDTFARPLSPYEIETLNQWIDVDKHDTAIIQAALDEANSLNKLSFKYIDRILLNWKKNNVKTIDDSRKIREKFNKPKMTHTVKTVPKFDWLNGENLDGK

SaDnaD [8] = biological target: T4, SaDnaD; assay: EMSA; two complexes summed; EMSA: 20 mM Tris-HCl pH 8.0, 100 mM NaCl, 25 C, 30 min, 1.7 nM DNA, gel at 4 C in TBE; fluorescence: 20 mM Tris-HCl pH 8.0, 200 or 500 mM NaCl, 0.1 uM tetramer; conditions: protein: recombinant, tags: C-terminal His tag (pET21e), chain copies: 4

tag-free SaDnaDY176A mutant protein (from UniProt Q9EUT0 1-228) (natural protein)
Fold of Vmax/Km of SaPriA ATPase with tag-free SaDnaDY176A (10 μM) against PriA alone [1]: 5.1 fold

SaDnaD1-200 (from UniProt Q9EUT0 1-200) (domain or fragment)
Kd [2]: 26 nM | stoichiometry N (SaDnaD1-200): 4

SaDnaD1-204 (from UniProt Q9EUT0 1-204) (domain or fragment)
Kd [2]: 11 nM | stoichiometry N (SaDnaD1-204): 4

SaDnaD1-195 (from UniProt Q9EUT0 1-195) (domain or fragment)
Fold of Vmax/Km of SaPriA ATPase with tag-free SaDnaD1-195 (10 μM) against PriA alone [1]: 1.2 fold | SaPriA ATPase activity with His-tagged SaDnaD1-195 (10 μM), stimulation over SaPriA alone [3]: 2 fold | SaPriA ATPase activity with tag-free SaDnaD1-195 (10 μM), stimulation over SaPriA alone [4]: 2 fold | Kd [5]: 150 nM | stoichiometry N (SaDnaD1-195): 4

Staphylococcus aureus DnaD (SaDnaD) (from UniProt Q9EUT0 1-228) (natural protein)
Fold of Vmax/Km of SaPriA ATPase with tag-free SaDnaD (10 μM) against PriA alone [1]: 5.3 fold | SaPriA ATPase activity with His-tagged SaDnaD (10 μM), stimulation over SaPriA alone [3]: 12 fold | SaPriA ATPase activity with tag-free SaDnaD (10 μM), stimulation over SaPriA alone [4]: 11 fold and 12 fold | Kd [5]: 17 nM | Kd [2]: 2 nM | stoichiometry N [6]: 4

TTTTTTTTTTTTTTTTTTTTTTTTTTTTTTTTTTTTTTTTTTTTT (ssDNA) [dT45]
apparent K (half saturation) (SaDnaD [7]): 2000 ± 200 nM

B1: dT55 (ssDNA)
DNA: TTTTTTTTTTTTTTTTTTTTTTTTTTTTTTTTTTTTTTTTTTTTTTTTTTTTTTT
apparent K (half saturation) (SaDnaD [7]): 1400 ± 100 nM

TTTTTTTTTTTTTTTTTTTTTTTTTTTTTTTTTTT (ssDNA) [dT35]
apparent K (half saturation) (SaDnaD [7]): 2200 ± 300 nM

B2: dT60 (ssDNA)
DNA: TTTTTTTTTTTTTTTTTTTTTTTTTTTTTTTTTTTTTTTTTTTTTTTTTTTTTTTTTTTT
apparent K (half saturation) (SaDnaD [8]; label: 5'-32P): 1500 ± 100 nM

TTTTTTTTTTTTTTTTTTTTTTTTT (ssDNA) [dT25]
apparent K (half saturation) (SaDnaD [7]): 4700 ± 800 nM

B3: dT65 (ssDNA)
DNA: TTTTTTTTTTTTTTTTTTTTTTTTTTTTTTTTTTTTTTTTTTTTTTTTTTTTTTTTTTTTTTTTT
apparent K (half saturation) (SaDnaD [8]; label: 5'-32P (EMSA), unlabeled in fluorescence titration): 500 ± 100 nM
